Consider one molecule from US8329186B2, “Treatment of inflammation using BST2 inhibitor” (Isu Abxis Co., Ltd, priority 2004, dated 2012).

One assay deals with Jurkat cells. Nature of the assay: Homotypic aggregation of Jurkat T cells activated with anti-CD3. In kind it is cell-based, human. The conditions noted are these: pretreatment 30 min before activation with anti-CD3. As to the method: When Jurkat cells (5×10^5 cells/ml) were incubated with anti-CD3 monoclonal antibody (OKT3: 10 μg/ml, BD Pharmingen) at 4° C. for 20 min and then with anti-mouse immunoglobulin polyclonal antibody (25 μg/ml, Zymed) 37° C. for 1 hr, cell aggregation occurred, and the cells were activated and induced to produce interleukin-2 (IL-2) (FIGS. 10 and 11). According to the same method, when green fluorescent protein (GFP) overexpression was induced, there was no effect. In contrast, when Jurkat cells were transfected with a Bst2-overexpressing vector and were induced to activate, homotypic cell aggregation increased (FIG. 10, panel A). IL-2 mRNA levels upon T cell activation were measured by real-time RT-PCR (Example 3). IL-2 mRNA expression was elevated by about two times under Bst2 overexpression in comparison with GFP overexpression (FIG. 10, panel B).
Jurkat cells were pretreated with a Bst2 decoy 30 min before activation, were activated using anti-CD3 monoclonal antibody, and were evaluated for inhibition of cell aggregation. The cells were treated with a relative amount of serial dilutions of an animal cell culture fluid containing a Bst2 decoy. The size of aggregates was represented as a ratio to the size of aggregates of a non-treatment group.

For another assay, the system named is mouse model of asthma. Nature of the assay: Ovalbumin-induced mouse model of asthma: infiltrating cells in bronchoalveolar lavage. In kind it is in vivo. As to conditions: ovalbumin-sensitized mice. The procedure:
A mouse model of asthma was prepared by sensitizing mice (C57B6, 8 weeks) with ovalbumin. In detail, mice were initially sensitized for five continuous days by intranasal injection of ovalbumin. After three weeks, mice were intranasally sensitized again with ovalbumin for five continuous days. One week after the secondary sensitization, mice were challenged intranasally with ovalbumin three times every 24 hrs to induce asthma. Herein, a Bst2 decoy was intravenously injected into mice 30 min before sensitization with ovalbumin, and was injected into mice 30 min before the first sensitization and the last injection of ovalbumin. Three days after the last injection, serum samples, lung tissues, and the like were collected from mice.
A mouse model of asthma was prepared as described in Example 8-1.
The effect of Bst2 decoy-Fc fusions on immune cell infiltration was assessed as described in Example 8-2. When ovalbumin-sensitized mice were treated with a Bst2 decoy, the total number of infiltrating cells was decreased and, especially, the number of neutrophils, eosinophils and lymphocytes except for macrophage was decreased in bronchoalveolar lavage (BAL) (FIG. 27).
A mouse model of asthma was prepared as described in Example 8-1. The effect of anti-Bst2/Damp1 antibodies on immune cell infiltration was assessed as described in Example 8-2. […]

A further assay has as its system CLP sepsis. Nature of the assay: CLP sepsis model: tissue and organ damage. The assay is classed as in vivo, rat. From the text: A rat model of sepsis was induced through cecal ligation and puncture (CLP) as described previously (Wichterman K A, Baue A E, Chaudry I H: Sepsis and septic shock-a review of laboratory models and a proposal. J Surg Res 29:189-201, 1980). An incision was made along the midline of the abdomen on an anesthetized animal. The cecum was exteriorized, ligated and punctured with a stainless steel needle. An appropriate amount of fecal matter was then extruded. The gauge of the needle, number of punctures and amount of fecal matter extruded are all factors in determining the severity of sepsis and mortality. […] The incision was sutured and appropriate post-operative care was administered. Sham-operated animals were subjected to similar laparotomy and intestinal manipulation, however, the cecum was neither ligated nor punctured. Immediately or 6 hours after the CLP procedure, animals were given intravenous injection of vehicle or a Bst2 decoy.
Blood enzyme levels were measured at 6, 12, and 24 hours post-CLP (FIG. 49A-49D). Organ damage, as indicated by increased levels of alanine aminotransferase (ALT), aspartate aminotransferase (AST), blood urea nitrogen (BUN) and creatinine, was evident in all animals that underwent the CLP procedure.

The subject of assay [1] is TNCB-induced contact hypersensitivity. Nature of the assay: TNCB-induced contact hypersensitivity in mice. In kind it is in vivo, Balb/c mice. As to the method:
To evaluate efficacy of Bst2 decoy on allergic dermatitis, contact hypersensitivity was induced by repeated application of 2,4,6-trinitro-1-chlorobenzene (TNCB) in Balb/c mice. The mice were initially sensitized with 0.2 ml of 1% TNCB solution on day 0, Subsequent challenges of 0.2 ml of 0.2% TNCB solution was applied to the shaved backs of the animals 2-3 times per week from week 2 to week 6. By the end of week 6, all animal developed lesions on the dorsal skin treated with TNCB solution (FIGS. 40A-40C).
During week 7, 5 daily doses of Bst2 decoy were administered at 10 mg/kg to the animals by intravenous injection, and the animals were sacrificed for observation at the end of week 7.
H&E staining was performed on exposed skin sections.

The test system of a further assay is HUVECs and U937 cells. Nature of the assay: Heterotypic aggregation/adhesion between IFN-γ-treated HUVECs and U937 cells. The assay is classed as cell-based, human. The procedure: HUVECs (1−5×10^4 cells/ml) were seeded onto a 12-well cell culture plate. After one day, the medium was exchanged with a low-serum medium containing 0.5% FBS, and the cells were pretreated with interferon-gamma (IFN-γ; Calbiochem) in a final concentration 10 ng/ml for 24 hrs. Then, the pretreated HUVECs were co-cultured with U937 cells (2×10^6 cells/ml, 500 μl) at 37° C. for 4 hrs. The co-culture was washed with phosphate buffer three or four times, and the remaining cells were fixed with 4% paraformaldehyde and microscopically observed.
HUVECs were transfected with an expression vector for Bst2, treated with or without IFN-γ and then transfected with Bst2 siRNA. These cells were assessed for U937 cell adhesion.
HUVECs were cultured in 12-well plates with or without transfection of Bst2 siRNA or control siRNA for 6 hr, then treated with or without IFNγ for 24 hr. In some experiments, cells were treated with crude media containing Bst2 decoy or mouse anti-human ICAM1 antibodies. After a wash with PBS (phosphate buffered saline), U937 cells were resuspended in serum free medium at 2×10^6 cells/ml. Assays were initiated by the addition of 200 ul U937 cells to HUVEC for a final volume of 1 ml. After 4 hr at 37° C., unbound U937 cells were removed by washing plates three times with PBS. Bound cells were fixed by the addition of 4% paraformaldehyde in PBS, and the bound cells were counted under microscopy in different fields. All statistical analyses were performed in Excel and statistical significance were evaluated with Student's t test. In some experiments, RNA samples were obtained from HUVECs after treatment with IFNγ and/or siRNAs, and real-time polymerase chain reaction (RT-PCR) analyses were performed.

Entries after “also recorded” stand apart in the source; their conditions may differ.

B1: Bst2 decoy: soluble Bst2 protein fragment having the amino acid sequence of SEQ ID NO:1; extracellular region of human Bst2, six-histidine tag (protein)
chain: NSEACRDGLRAVMECRNVTHLLQQELTEAQKGFQDVEAQAATCNHTVMALMASLDAEKAQGQKKVEELEGEITTLNHKLQDASAEVERLRRENQVLSVRIADKKYYPSSQDHHHHHH
On to B1, for which the “aggregation of Jurkat cells” value in the assay with Jurkat cells is recorded as “significant decrease”. For the same molecule, in the assay on mouse model of asthma, the “number of infiltrating cells in bronchoalveolar lavage (total, neutrophils, eosinophils, lymphocytes)” value is recorded as “remarkably decreased”. Further, in the assay with CLP sepsis (6, 12 and 24 hours post-CLP), the “blood levels of ALT, AST, BUN and creatinine” value is “near-normal level”. Further, in the assay with CLP sepsis (24 post-CLP), the “H&E staining of liver, kidney and lung sections” value is “protective effects against organ damage”. The “recovery from TNCB-induced skin lesions” value in assay [1] (10 mg/kg intravenous, 5 daily doses during week 7, vs vehicle alone) is reported as “recovered much quicker”. Also, the “H&E staining of exposed skin sections” value in assay [1] (TNCB-treated mice) is “near-normal morphology with little signs of inflammation”. Further, the “binding of U937 cells to IFNγ-treated HUVECs” value in the assay on HUVECs and U937 cells (Bst2 decoy-containing medium, IFN-γ 10 ng/ml 24 hrs, co-culture 4 hrs) is reported as “decreased binding”. Moreover, the “dose dependence of effect in heterotypic cell aggregation/adhesion assay” value in the assay with HUVECs and U937 cells (IFNγ-treated HUVECs and U937 cells) was “dependent on concentrations; also recorded: dose-dependent response”.
